Experimental data as given in the nanobody polyreactivity screen of Harvey et al. (2022).

Experiment: yeast display, Sf9 membrane polyspecificity reagent, FACS + sequencing; frameworks hold sequencing errors
Summary of the method: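 Synthetic nanobody libraries on Saccharomyces cerevisiae BJ5465 were galactose-induced for 36–48 hours, stained 1 hour at 4 °C with 10% biotinylated, detergent-solubilized Sf9 membrane reagent and enriched on streptavidin microbeads. FACS then separated cells into low and high (top ~1%) gates by anti-HA (expression) and streptavidin (reagent binding) fluorescence. Genes were colony-PCR amplified, MiSeq 2 × 250 sequenced and CDR-length filtered. A clone's polyreactivity label is that of its gate of origin.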

Row | Sequence | polyreactivity (PSR sort gate)
1 | QVQLVESGGGLVQAGGSLRLSCAASGFTFRENAMGWSRQAPGKERELVAAISSSGGSTYYADSVKGRFTISRDNAKNTVYLQMNSLKPEDTAVYYCAADATLSFDYWGQGTQVTVSS | high polyreactivity
2 | QVHLVESGGGLVQAGGSLRLSCAASGLIFSDYAMGWYRQAPGKERELVAAIRSGGRTYYADSVKGRFTISRDNAKNTVYLQMNSLKPEDTAVYYCNKLYRRSPVPREYDYWGQGTQVTVSS | high polyreactivity
3 | QVQLVESGGGLVQAGGSLRLSCAASGIIFPYYTMGWYRQAPGKERELVARITNGGRTYYADSVKGRFTISRDNAKNTVYLQMNSLKPEDTGVYYCAADSRYDYEYWGQGTQVTVSS | high polyreactivity
4 | QVQLVESGGGLVQAGGSLRLSCSASGRTLGRNAMGWYRPAPGKERELVAAISWGGGDTSYADSVKGRFTISRDNAKNTVYLQMNSLKPEDTAVYYCNRYYTPYRRWGYDYWGQGTQVTVSS | high polyreactivity
5 | QVQLVESGGGLVQAGGSLRLSCAASGSIISNYVMGWYRQAPGKERELDAAITRRGGRTYYADSVKGRFTISRDNAKNTVYLQMNSLKPEDTAVYYCAAEGYVYTFWDSTDFDYWGQGTQVTVSS | high polyreactivity
6 | QVQLVESGVGLVQAGGSLRLSCAASGRIFTSNAMGWYRQAPGKERELVAAIHRGGSTYYADSVKGRFTISRDNAKNTVYLQMNSLKPEDTAVYYCNAYRKSARSGGHYDYWGQGTQVTVSS | low polyreactivity
7 | QVQLVESGGGLVQAGGSLRLSCAASGRTFYGYAMGWYRQAPGKERELVAAITQRGVSTYADSVKGRFTISRDNAKNTVYLQMNSLKPEDTAVYYCAAEYYAYPYGDDYDYWGQGTQVTVSS | low polyreactivity
8 | QVQLVESGVGLVQAGGSLRLSCSASGSTFYTYAMGWYRQAPGKDRELVAAINLRGGRTYYADSVKGRFTISRDTAKNTVYLQMNSRKPEDTAVYYCAAQSIAYYKQIYYLGMDYWGQGTQVTVSS | high polyreactivity
9 | QVQLVESGGGLVQAGGTLRLSCAASGYIFFPYAMGWYRQAPGKERELVAAISGSGTSTYYADSVKGRFTISRDNAKNTVYLQMNSLKPEDTAVYYCAAKYGQYDYDYWGQGTQVTVSS | low polyreactivity
10 | QVQLVESGGGLVQAGGSLRLSCAASGSIFLIYAMGGYRPAPGKERELVAGINWSGSRTYYADSVKGRFTISRDNAKNTVYLQMNSLKPEDTAVYYCAARVRRPLYSAYDSWGQGTQVTVSS | low polyreactivity
11 | QVQLVESGVGLGQAGGSLRLSCAASGRTYWRYAMGWYRQAPGKETELVASINWNGGSTYYADSVKGRFTNSRDNAKNTVYLQMNSLKPEDTAVYYCAALRWPVYLFDYWGQGTQVTVSS | high polyreactivity
12 | QVQLVESGGGLVQAGGSLRLSCAASGRIFSYYTMGWYRQAPGKERELVAAITSGDSTNYADSVKGRFTISRDNAKNTVYLQMNSLKPEDTAVYYCNARYSWWRSRVGSSHGPDGYWGQGTQVTVSS | high polyreactivity
13 | QVQLVESGGGLVQAGGSLRLSCAASGSIFNAYVMGWYRQAPGKERELVAAISRSGGRTYYADSVKGRFTISRDNAKNTVYLQMNSLKPEDNAVYYCAADYGGPYGQLDYWGQGTQVTVSS | high polyreactivity
14 | QVQLVESVGGLVQAGASLRLSCAASGITFVYYALGWYRQAPGKERELVAAITSTGGSTYYADSVKGRFTISRDNAKNTVYLQMNSLKPEDTSVYYCAAVPRGTQGAMDYWGQGTQVTVSS | low polyreactivity
15 | QVQLVESGGGLVQAGGSLRLSCAASGSTFYWYAMGWYRQAPGKEREFVAAISLGSGSTYYADSVKGRFTISRDNAKNTVYLQMNSLKPEDTAVYYCARRYPYPAYEYGYWGQGTQVTVSS | high polyreactivity
16 | QVQLVESGGGFVQAGGSLRLSCAASGGIFGSYAIGWYRQAPGKERELVADITQSGGRTRNADSVKGRFTSSRDNAKNTVYLQKNSLKPEDTALYYCNAQDVDSGDDYDYWGQGTQVTVSS | low polyreactivity
17 | QVQLVESGGGLLQAGGSLSLSCAASGGIFYYNAMGRYRQAPRKERELVAANTFSGGSTNYADSVKGRFTISRDNAKNTVYLQMNSLKPEDTAVYYGNARRGYGGGYDYWGQGTQVTVSS | high polyreactivity
